Consider 20 sequences from a protein production outcome set (Wang et al. 2014).

The data set is described as follows: label from the status in PepcDB records.
Regarding “MNSLPIADLLASAVIAACIVISTMRGVIAEAGSMVAWVVSFFFAKLFAAPFADLAFASFQPRLFALALSFISLFVIACLIQKMLRSLLTGAVSAVGLGFANRILGGVFGALKGVLIVTLLIMLASKTDLPDTEEWQQSYTVPFFVSLSEAVLNHTDNAPESLDDD”, the protein production entry is “failed”.
Next, “MALLAIDLDMFGHGSAGQVLGRTDVDRVEYQYSTKSLLSIYIFYEETCGFFIDEEKKVFVVFELDESQAYKYAYIIGENICLKKLDLGEVRTFSCPIVCSSSYVPS”: “failed”; “MVIQIVIISPGDGNLSPAHLLHRFALSLLESLRGKKMMFVGTEEMYLSLICLLHSQIPENYKSMDYLWITHRLLSQDLEILVDYNAMIEFYWAPFLLESNSDNAIVDIVSDRIMRKGLINKHGKHWRGADIVVESSFKDGNKRIVEMESEDAYLMTMGKWVKKSMDPLRTKVFFSTMSPTHYKIEDWGGEQGKNFYNQTTPIQDMNHWPSDCSKTLMKVIGEELDQRADFLVTVLNITQLTSYRKDAHTSIYKKPWSPYDEGSASKSG”: “failed”.
Next, “VATLYNDLKNKQTSVVEPKKPLPETWKNMHPCMVLNYMRPQCTFIVSGGTGTNQNNTFSMSVCVDNCEFNAEGPSKKAARYKLSALVCNKLFGTDYPQK”: “failed”; “MRLSISLGESPCISSLKVRGFTASPQTPNLSISVIVTAFNRREYLRYALLSLKNQEADSFEVVVSKNFSDRVTDKFCSENGFINVTTDSSRSGERVYDALRSSHGDFILFLDDDDIFRRTKISRVSDVISKRNVAFYRNAIFPVTVDGVIATHYQPQMHDPLYLILERVSDVRLLHRHACDFNSSSMGISRSMLDSHASDLRKINLAVDTFYFALAASSRMPLFCDSMIESIYRIMPSSTSRDLRDFYLFSRFERSFLRRYVPDLERIAEIVEGSPAKPVIGRMLSLYKILQYVFEEDRVNLKPSPLDRVRFLLERPFPYSLLYSRIFRDAAMRSEFRRENRIVYGNADRRRRLEHHHHHH”: “not failed”; “MTIHWCGTGLSAIPGLRRLIEAGHALTVWNRTVEKARAELGDLTDDIRAFDIDALGAVLAKGDVVVSMLPGDWHVPLAELAIAKGTHFVSSSYIAPEMRALDERAREAGVSLVNEIGLDPGIDHLMAHELVADYRASDAFDAQNHLSFISYCGGIPKHPNPFRYKFSWSPLGVLKALRSPSRSIRDYAPLDVARPWDAISSYTAPLPTPESFEVYPNRDSLPFMGQYHFKEHWPVKEFVRGTLRLNGWADAWGDVFREIETLSGPEGDARLKEMSDQFWAENAYDQGEPDRVVLCVGLKAEKDGREVWHKSYVMDAWGDARGTAMARLVSIPVSLAVEAVLNREIPAGVHAASSDPKLLARWMAEVATLAQHLQIVDHTA”: “failed”.
Next, “MWVQTKANEDAAPMSERFTLVLLTHEAKALAQRALRYYSSFACSILVLDSSEKADESLARQFPKVDYRHVPQFSRQDQQGKLTYGVGLVDTPYLAIASDTDFLIADGISAALAFLDAHPDYAVCHGYGLMYSARVLETSYYLRDRKGPEDFAAANGRERIMSFMGHYLSPFNAVTRTDVLRQWYSQLPPAVSTEWLDIGYAFFLLATAKARILPVPFIVREANREALERTARIQALLSSKDAGSLAQHQQFAEFLATLPHNCEGPDAQQMKQLALDSFAALAECLESGRSLKGVMIFRSTWSEVGKDPVRAFGSEQFVEMPFYNQPMFDLLTQIEFLVHAMPAGRLQLNELEGVLLKQEELLRVHSNDTARTLRSRLWEAMALNLFNFTVVKRLAESMRDTDEVEVFRELQEWAARLKALPATDSSALFANTQSGQLFSWLEGRGPKPGQFKSIAHLLGRRAGGPQFQILLLDLDADMIKLQATFDSLMANHCKAFKLVVLTTGDLPAMTTAQDTVHFVKVSQGNYIERLNQLVAQSTAHWVLLMEAGDQLTASGLLRASLELLGAEGIRAVAMDEVQRQADGTLRHVFRPGVNLDLLQSAPNLMARHWLLHREVLLQAGGFNREFARAVELDLVLRLIEDGGLAGLAHLAEPLLICQAAPAGENAEERQVLSRHLANRGYRAQVSSAQPGTYQIDYQHAERPLVSIILPSQDNFAELQRCLVSVLQRTRYQRYEVLIAENHSQNAELDSWLASLERQGERIRVLRSGQRVSTSALHNAACAEAKGEYLLLLSADAEVVNANWIDSLLNQVQRPEIGIVGARLVNERGMTTQAGLILGLNGQLGAAFAGEAKDAPGYMNSLWVEKNYSAVSGVCLMIAKALFEAVGGLDEEHFDQAFADVDLCLKVADAGYLTVLTPQAQVMHPGTLAQDPQALAALKDKWAARFAQDTAYNQNLALTGKGFALGTASRVDWQQLLSN”: “failed”; “MTESVARLRGEQLTLGYGKYTVAENLTVEIPDGHFTAIIGPNGCGKSTLLRTLSRLMTPAHGHVWLDGEHIQHYASKEVARRIGLLAQNATTLGDITVQELVARGRYPHQPLFTRWRKEDEEAVTKAMQATGITHLADQSVDTLSGGQRQRAWIAMVLAQETAIMLLDEPTTWLDISHQIDLLELLSELNREKGYTLAAVLHDLNQACRYASHLIALREGKIVAQGAPKEIVTAELIERIYGLRCMIIDDPVAGTPLVVPLGRTAPSTANS”: “failed”.
With “MSDVPHLRFPEFSGEWEEHTLSEYLEFKNGLNPDAKRIGSGLPFISVMDILSEGVINYDNIRGKVNATEKEIECFGVKDGDLLFQRSSETLEDVGRANVYMDNRTAIYGGFVIRGRKIGNYDPLFFKYLLATPLARKRTCRMGAGAQHFNIGQEGLSKISLYFPSIEEQRKIAEFLSLIDERIATQNKIIEDLKKLKSAISLNVLHSDKWEQFKIKDIAQIGRGRVISSIEIGQQKSPTYPVYSSQTSNDGIMGYLDDYMFEGEYISWTTDGANAGTVFYRNGKFNCTNVCGLLKLRKEFDTHFVSLVLAEATKKYVSINLANPKLMNNTMGNIQIRLPKLEEQKRISIVFRVLQRLWTVHNSLLTEYTKQEQYLLSQMFILEHHHHHH”, the protein production result is listed as “failed”.
Next, “MNYASNTFELIAKEWLQMKDWAEITKTRRLDMLERVVFPAIGKLPVREITPHHILKILQETAKRGAPTVAAEARRTISSVFELAVATLRADSDPVWPVRKALPANKTQHLEHHHHHH”: “not failed”.
Next, “MLELCSIASGSSGNCICVGTDDCHVLIDAGISGKKIENGLNEFDMTATDMHGILVTHEHIDHIAGLGVMARRYHMPIYATKATIGAIKCTKSVGNIDDELFHPIEAGVDFTIGDIEFEPLHISHDAADPVAYRFKNENHAMAVVTDLGTYDDALVSKLQNLDGLLLEANHDINMLQTGAYPYPLKRRIMGDSGHLSNERSGQLLCELLHDKFGSVILGHLSKENNYEKLAYEAVRLEVTMGDNPYKASDFPMYVAKRDRASDRIAVE”: “failed”; “QQNIVLSIQDRLQQLPKSERKIAEYILKNTETVISMNAQELAKQAGSSPAAIIRFCHSMDVNGFTELKLLLSANLGQMKQQMYTEVTKGESTADIKQKLQARFVHVVERSGQTLE”: “not failed”.
Under “SSTQGWADGLLTDIAHVRAHISDEFLFSSASTLNEIALAADIEERTQSVDVFLGNSLFVRLVDMFGRLNTEVFTNRGASGIDGLFATASGVQRSRGKPLLMYIGDTSALYDLNSLALFSRNDLPSVLVVTNNDGGAIFDMLPVPQEHRTAYYQMPHGYQFEHAAKQFGLKYEKPTTLQMYQAMVADHLSSGQGTMLVEVQTPPSQAAELIKAFNKSLHASL” stands “failed”.
Consider “MTQSAPEFKVLQSIAFLAVVLQSSLLYTMNQGNVLLEQSLIMGMLFNLAKFSAPAFIFIVGFHLIRHYTKQLVYKEYISEKATHLLIPYFFWSILYLLTTNDLITLQGGIKSLLLGTAAPHLWYVIMMFQIHLLFPLLCTLFYWFQKRTENKKDIYKYMTFFACLYFLLMWFSSHYIFNGEKLTSSTILHYTDRSFLFYSFYFVMGGIAAVPLKTWRLFVMKHIPLITILFFILFLFINYELFSFYGANSIHLTVSTYLKPSMFLYIVCEIIILYVLSIMIVQRRGFLYKTLRFIGNYTYGAYLAHLFFLQLCTKFLSLFTLQENTILYSLLLFVLTAIISISTMVICSTIPFHTWITGPSPTTKMKWTKVVFRKNHKKLFKPYI”, for which the protein production result is “failed”.
With “MEWLFWFDARDYEFARQVLQRGTAVLYAVAFLSTLNQFPALLGERGLLPVPAFLDMARRLARPTLFRWRYSDALLKAVCWTGIGVSVLLVMGLPQTGPPWLPMLAFLTLWFLYMSIVNVGQTFYGFGWEILLLEAGFTVAFLGSNQCPPPTTILVLIVWLVFRLEFGAGMIKIRGGREWRDMTAMFYHHETQPMPGPLSRQAHLLPRPLHKVEVVGNHFAQLVVPFFLFAPQPLASIAAGIIIATQLWLVGTGNFAWLNWVAIVLAFAAVSDPVAHAVFPFIPLEWHQSTETPVWWLAVVVLVTVLLLVFSYQPLLNLFSSRQLMNASFNRWRLVNAYGAFGTVTKQRIEIVVEGTLDDAPDAPDERWLEYGFKGKPGDVRRLPRQWAPYHLRLDWLMWFLPLRTVHEDWFYIFLDRLLEADRRTLGLLRVDPFDGERPRWVRARSYLYRFASRAEFRETGERWVRVLLYDAIPPVSLSPRRRRLP”, the protein production result is “failed”.
Next, “MQTVPSSDGTPIAFERSGSGPPVVLVGGALSTRAGGAPLAERLAPHFTVICYDRRGRGDSGDTPPYAVEREIEDLAAIIDAAGGAAFVFGMSSGAGLSLLAAASGLPITRLAVFEPPYAVDDSRPPVPPDYQTRLDALLAEGRRGDAVTYFMTEGVGVPPDLVAQMQQAPMWPGMEAVAHTLPYDHAVMGDNTIPTARFASISIPTLVMDGGASPAWIRHTAQELADTIPNARYVTLENQTHTVAPDAIAPVLVEFFTR”: “not failed”.
Under “MEVKGFIEIMRPHNCILAGIVGILGALVAYEGIPDIKTLTLIFWVVYFGCSGGNTANDYFDYEIDKINRPNRPLPRGAMSRRAALYYALLQYAIGSILAYFLNIRAFVFATIAYFLTFLYGWKLKPLPLVGNITVAALTAATPIYGAIGVGRIGLAGYLAICAFLVNVSREIMKDIEDIEGDKALGARTLPIIIGEKKAAIIAAIFGFLTVIASFLPVKVGIGLGYAPIIIVDIIIIKASIDVLRDPKAASKGQKLLKIATFVAVISFLAGALTKGV” stands “failed”.
Next, “MINHKIFPTADAVVKSLADDMLAYSQQGQPVHISLSGGSTPKMLFKLLASQPYANDIQWKNLHFWWGDERCVAPDDAESNYGEANALLFSKINMPAQNIHRILGENEPQAEAERFAQAMAHVIPTENGTPVFDWILLGVGADGHTASLFPGQTDYADANLSVVASHPESGQLRVSKTAKVLQAAKRISYLVLGAGKAEIVEQIHTTPAEQLPYPAAKIHSTSGVTEWYLDSDAAAKIA”: “not failed”; “MNAYYYLAIAICAEVIATVSMKAVKGLSTPLPLALIIVGYGVAFWMLTLVVRTVPVGVAYAVWAGMGIVMVSIAALFLYGQKLDIPAMLGMALIVLGVVVIQLFSKTAGH”: “failed”; “MKLKWWQRLLPRSAFSQTVLLIGCLLLINQLVSYVTVAVYVLKPSYQQINQLIARQINLLFVDGIDIGREHLTIVDALNAKVRDDGMKVYNQQQAREAGIEQATYYGFWSSQMTEYLGGDAEVRVTHGRVLQVWIRPPQAPSVWIKVPLIGQNVSDLSPLTLYLMVIGALSVAGGWWFARQQNRPLRRLQKAAISVSRGEFPDPLPLKGSSELVEVTNAFNQMAHSMKQLEQDRALLMAGISHDLRTPLTRIRLASEMMVEDDQYLKDGIVNDIEDMDAIISQFIAYIRQDQEASREPGQINKLIQDIAQAEANRDGEIELALADCPEALFQGLAIKRVLSNLVENAFRYGSGWVRISSQFDGKRIGFSVEDNGPGIDESQIPTLFQPFTQGDIARGSVGSGLGLAIIKRIIDRHQGQITLSNRAAGGLKAQVWLPRE”: “failed”.
